# Measured values reported in article PMC5603418 (The FEBS journal, 2017).
# T1: Bdellovibrio bacteriovorus proline utilization A (BbPutA) (Bdellovibrio bacteriovorus, UniProt Q6MNK1)
# T1 sequence (Q6MNK1 1-982): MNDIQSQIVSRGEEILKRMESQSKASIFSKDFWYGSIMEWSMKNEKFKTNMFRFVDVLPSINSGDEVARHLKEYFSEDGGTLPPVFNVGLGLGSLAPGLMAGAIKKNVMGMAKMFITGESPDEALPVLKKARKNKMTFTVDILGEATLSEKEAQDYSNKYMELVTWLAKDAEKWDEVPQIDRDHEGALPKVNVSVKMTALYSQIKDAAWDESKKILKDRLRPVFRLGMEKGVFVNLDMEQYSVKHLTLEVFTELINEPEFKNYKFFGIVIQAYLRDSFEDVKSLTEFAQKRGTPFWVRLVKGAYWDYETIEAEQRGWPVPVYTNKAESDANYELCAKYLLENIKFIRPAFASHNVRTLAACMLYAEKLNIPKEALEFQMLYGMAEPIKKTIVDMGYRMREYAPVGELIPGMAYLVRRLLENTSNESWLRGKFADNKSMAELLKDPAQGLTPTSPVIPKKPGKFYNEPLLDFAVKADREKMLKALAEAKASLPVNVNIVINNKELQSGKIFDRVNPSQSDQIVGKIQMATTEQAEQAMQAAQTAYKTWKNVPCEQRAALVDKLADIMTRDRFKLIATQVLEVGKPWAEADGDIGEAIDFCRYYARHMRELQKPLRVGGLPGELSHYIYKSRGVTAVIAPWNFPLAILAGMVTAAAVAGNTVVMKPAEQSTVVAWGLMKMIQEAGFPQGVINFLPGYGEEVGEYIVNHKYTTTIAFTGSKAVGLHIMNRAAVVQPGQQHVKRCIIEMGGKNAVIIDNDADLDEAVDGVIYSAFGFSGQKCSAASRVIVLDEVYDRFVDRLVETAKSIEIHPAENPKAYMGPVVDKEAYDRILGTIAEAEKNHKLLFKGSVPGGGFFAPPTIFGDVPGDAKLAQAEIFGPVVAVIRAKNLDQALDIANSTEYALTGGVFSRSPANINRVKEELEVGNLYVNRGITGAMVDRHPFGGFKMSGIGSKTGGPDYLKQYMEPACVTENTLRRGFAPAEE
# B1: Bdellovibrio bacteriovorus proline utilization A (enzyme, Bdellovibrio bacteriovorus HD100, UniProt Q6MNK1 1-982, looked up)
# chain: MNDIQSQIVSRGEEILKRMESQSKASIFSKDFWYGSIMEWSMKNEKFKTNMFRFVDVLPSINSGDEVARHLKEYFSEDGGTLPPVFNVGLGLGSLAPGLMAGAIKKNVMGMAKMFITGESPDEALPVLKKARKNKMTFTVDILGEATLSEKEAQDYSNKYMELVTWLAKDAEKWDEVPQIDRDHEGALPKVNVSVKMTALYSQIKDAAWDESKKILKDRLRPVFRLGMEKGVFVNLDMEQYSVKHLTLEVFTELINEPEFKNYKFFGIVIQAYLRDSFEDVKSLTEFAQKRGTPFWVRLVKGAYWDYETIEAEQRGWPVPVYTNKAESDANYELCAKYLLENIKFIRPAFASHNVRTLAACMLYAEKLNIPKEALEFQMLYGMAEPIKKTIVDMGYRMREYAPVGELIPGMAYLVRRLLENTSNESWLRGKFADNKSMAELLKDPAQGLTPTSPVIPKKPGKFYNEPLLDFAVKADREKMLKALAEAKASLPVNVNIVINNKELQSGKIFDRVNPSQSDQIVGKIQMATTEQAEQAMQAAQTAYKTWKNVPCEQRAALVDKLADIMTRDRFKLIATQVLEVGKPWAEADGDIGEAIDFCRYYARHMRELQKPLRVGGLPGELSHYIYKSRGVTAVIAPWNFPLAILAGMVTAAAVAGNTVVMKPAEQSTVVAWGLMKMIQEAGFPQGVINFLPGYGEEVGEYIVNHKYTTTIAFTGSKAVGLHIMNRAAVVQPGQQHVKRCIIEMGGKNAVIIDNDADLDEAVDGVIYSAFGFSGQKCSAASRVIVLDEVYDRFVDRLVETAKSIEIHPAENPKAYMGPVVDKEAYDRILGTIAEAEKNHKLLFKGSVPGGGFFAPPTIFGDVPGDAKLAQAEIFGPVVAVIRAKNLDQALDIANSTEYALTGGVFSRSPANINRVKEELEVGNLYVNRGITGAMVDRHPFGGFKMSGIGSKTGGPDYLKQYMEPACVTENTLRRGFAPAEE
# B2: Bdellovibrio bacteriovorus proline utilization A inactivated by N-propargylglycine (enzyme, Bdellovibrio bacteriovorus HD100, UniProt Q6MNK1 1-982, looked up)
# chain: MNDIQSQIVSRGEEILKRMESQSKASIFSKDFWYGSIMEWSMKNEKFKTNMFRFVDVLPSINSGDEVARHLKEYFSEDGGTLPPVFNVGLGLGSLAPGLMAGAIKKNVMGMAKMFITGESPDEALPVLKKARKNKMTFTVDILGEATLSEKEAQDYSNKYMELVTWLAKDAEKWDEVPQIDRDHEGALPKVNVSVKMTALYSQIKDAAWDESKKILKDRLRPVFRLGMEKGVFVNLDMEQYSVKHLTLEVFTELINEPEFKNYKFFGIVIQAYLRDSFEDVKSLTEFAQKRGTPFWVRLVKGAYWDYETIEAEQRGWPVPVYTNKAESDANYELCAKYLLENIKFIRPAFASHNVRTLAACMLYAEKLNIPKEALEFQMLYGMAEPIKKTIVDMGYRMREYAPVGELIPGMAYLVRRLLENTSNESWLRGKFADNKSMAELLKDPAQGLTPTSPVIPKKPGKFYNEPLLDFAVKADREKMLKALAEAKASLPVNVNIVINNKELQSGKIFDRVNPSQSDQIVGKIQMATTEQAEQAMQAAQTAYKTWKNVPCEQRAALVDKLADIMTRDRFKLIATQVLEVGKPWAEADGDIGEAIDFCRYYARHMRELQKPLRVGGLPGELSHYIYKSRGVTAVIAPWNFPLAILAGMVTAAAVAGNTVVMKPAEQSTVVAWGLMKMIQEAGFPQGVINFLPGYGEEVGEYIVNHKYTTTIAFTGSKAVGLHIMNRAAVVQPGQQHVKRCIIEMGGKNAVIIDNDADLDEAVDGVIYSAFGFSGQKCSAASRVIVLDEVYDRFVDRLVETAKSIEIHPAENPKAYMGPVVDKEAYDRILGTIAEAEKNHKLLFKGSVPGGGFFAPPTIFGDVPGDAKLAQAEIFGPVVAVIRAKNLDQALDIANSTEYALTGGVFSRSPANINRVKEELEVGNLYVNRGITGAMVDRHPFGGFKMSGIGSKTGGPDYLKQYMEPACVTENTLRRGFAPAEE
# modifications: Lys196 covalently linked to the N5 atom of the FAD by a 3-carbon link (inactivation by N-propargylglycine)
# B3: Bradyrhizobium japonicum proline utilization A (enzyme, UniProt Q89E26 1-999, looked up)
# chain: MPNIPPPFTAPYAPDDAEIAARLLPASHLSPPQEARIHRTATRLIEAIRKRDDRLGGVEDMLREFALSTKEGLALMVLAEALLRVPDARTADQFIEDKLGEGDFIHHETKSTAFLVNASAWALGLSARVIQPGETPDGTIGRLVKRLGAPAVRTATRQAMRLMGNHFVLGETIEQALERGKPRSGQKTRYSFDMLGEGARTAADARRYFDAYASAIETIGKAAGNHALPDRPGISVKLSALHPRFEAISRARVMVELVPQLLDLAQRAKAHDLNFTVDAEEADRLELSLDVIAATLADPSLKGWDGFGLAIQAYQKRASAVIDYVDALARAHDRKLMVRLVKGAYWDTEIKRAQERGLDGYPVFTRKAMTDLNYVACASKLLALRPRIFPQFATHNALTVATVLEMAEGSSGFEFQRLHGMGEALYEQLAKDHADIAYRTYAPVGSHRDLLAYLVRRLLENGANSSFVAQAADYRVPVPALLQRPADAIVRPQAAAHPRIPLPCDLFAPERRNSRGVEFGARTALDQLLTDVKAETGDLKPIADATPDQAHAAVAAARAGFAGWSRTPAGIRAAALEQAAHLLESRSAHFIALLQREGGKTLDDALSELREAADFCRYYAAQGRKLFGSETAMPGPTGESNALTMRGRGVFVAISPWNFPLAIFLGQVTAALMAGNSVVAKPAEQTPRIAREAVALLHEAGIPKSALYLVTGDGRIGAALTAHPDIAGVVFTGSTEVARSINRALAAKDGPIVPLIAETGGINAMIADATALPEQVADDVVTSAFRSAGQRCSALRLLFVQEDVADRMIEMVAGAARELKIGDPSDVATHVGPVIDVEAKQRLDAHIARMKTEARLHFAGPAPEGCFVAPHIFELTEAGQLTEEVFGPILHVVRYRPENLERVLRAIERTGYGLTLGVHSRIDDSIEAIIDRVQVGNIYVNRNMIGAVVGVQPFGGNGLSGTGPKAGGPHYLARFATEQTVTINTAAAGGNAALLAGEE
# Tests used:
# [1] = biological target: T1, Bdellovibrio bacteriovorus proline utilization A (BbPutA); assay: X-ray crystal structure, […] Å, of the covalently inactivated enzyme; type: binding
# [2] = biological target: Desulfovibrio vulgaris proline utilization A (Desulfovibrio vulgaris str. Hildenborough); assay: SAXS
# [3] = biological target: the molecule itself; assay: SAXS
# [4] = biological target: the molecule itself; assay: AUC
# [5] = biological target: the molecule itself; assay: AUC; remark: listed apart in the source
molecule,measurement,setting,value
"C#CCNCC(=O)O [compound 1, N-propargylglycine]","X-ray crystal structure, 2.2 Å, of the covalently inactivated enzyme",[1],3-carbon link between Lys196 and the N5 of the FAD consistent with the presence of a covalent NPPG modification
Desulfovibrio vulgaris proline utilization A (enzyme),stoichiometry N,[2],2
B1,stoichiometry N,[3],2
B2,stoichiometry N,[4],2
B3,stoichiometry N,[5],4
